Experimental data as given in PMC8550178, “Enzymatically synthesized exopolysaccharide of a probiotic strain Leuconostoc mesenteroides NTM048 shows adjuvant activity to promote IgA antibody responses” (Gut Microbes, 2021).
Blank lines part the entries; values can stand above or below the molecule they belong to.

Tests used:
Assay in all cases: fructose release, DNS method
Conditions in all cases: 20 mM sodium acetate pH 5.5, 1 mM CaCl2, 28°C, 5-200 mM sucrose
Gtf2 = test system: T1, Gtf2; assay type: biochemical, Leuconostoc mesenteroides subsp. mesenteroides
T1 construct: signal peptide removed, C-terminal His6 (pET23b), E. coli BL21(DE3); full-length precursor 1479 residues; draft genome BOPR01000001
Description: fructose release, DNS method on Gtf2

[1] = substrate: OC[C@H]1O[C@@](CO)(O[C@H]2O[C@H](CO)[C@@H](O)[C@H](O)[C@H]2O)[C@@H](O)[C@@H]1O; assay type: biochemical, Leuconostoc mesenteroides
Description: fructose release, DNS method on LEUM1752

[2] = substrate: OC[C@H]1O[C@@](CO)(O[C@H]2O[C@H](CO)[C@@H](O)[C@H](O)[C@H]2O)[C@@H](O)[C@@H]1O; assay type: biochemical, Leuconostoc mesenteroides; remark: listed apart in the source
Description: fructose release, DNS method on LEUM1747

Km (Gtf2): 23 mM
Molecule: OC[C@H]1O[C@@](CO)(O[C@H]2O[C@H](CO)[C@@H](O)[C@H](O)[C@H]2O)[C@@H](O)[C@@H]1O [sucrose]

B1: LEUM1752 (Leuconostoc mesenteroides subsp. mesenteroides ATCC 8293) (protein)
chain: DVSQNNGVVVATAVDQSNLDATTSDKSITTDDKAATTAATSTDDKATTTVATSTDDKDTTTAATSTDDKATTTVATSTDDKATTTAATSTDDKAATTAATSTDDKAATTAATSTDDKAATTADTSTDDKAATTAATSTDDKATTTAATSTDDKTATTVGTSDNNNSATASDKDVSSSAQKSQTIDNNSKTADTTAALEASSKNLKTIDGKTYYYDDDDQVKKNFATVIDGKVLYFDKETGALADTNDYQFLEGLTSENNTYTEHNASVGTSSDSYTNVDGYLTADSWYRPKDILVNGQNWESSKDDDLRPLLMTWWPDKATQVNYLNAMKYLDATETETVYTSDDSQDALNKAAQNIQVKIEEKISQEGQTQWLKDDISKFVDSQSNWNIASESKGTDHLQGGALLYVNSDKTPDANSDYRLLNRTPTNQTGTPLYTTDPTQGGYDFLLANDVDNSNPVVQAEQLNWMYYLLNFGSITNNDADANFDSIRVDAVDNVDADLLQIAADYFKAAYGVDKSDAISNQHVSILEDWSDNDAEYVKDNGDNQLSMDNKLRLSLKYSLTMPAVDQYGNKRSGLEPFLTNSLVDRTNDSTDNTAQPNYSFVRAHDSEVQTVIAEIIKQRIDPDSDGLSPTMDQLTEAFKIYNADQLKTDKEFTQYNIPSTYATILTNKDTVPRVYYGDMYTDDGQYMATKSLYYDAIDTLLKSRIKYVSGGQTMSMKYMQGDSSMAADSYRGILTSVRYGNGAMTATDAGTNETRTQGIAVIESNNPDLKLSSTDQVVVDMGIAHKNQAYRPALLTTKDGIDTYVSDSDVSQSLIRYTNSNGQLIFNSSDIVGTANPQVSGYLAVWVPVGASDTQDARTESSTATTADGQTLHSNAALDSQVIYESFSNFQSTPTTEAEYANVQIANNTDLYKSWGITNFEFPPQYRSSTDSSFLDSIIQNGYAFTDRYDLGFNTPTKYGTVDQLRTAIKALHATGIKAMADWVPDQIYNLTGKEVVAVQRVNNSGIYNQDSVINKTLYASQTVGGGEYQALYGGEFLDEIKKLYPSLFEKNQISTGVPMDASEKIKEWSAKYFNGTNIQGRGAYYVLKDWATNEYFKVSTSSNSSVFLPKQLTNEESNTGFISTDGGMTYYSTSGYQAKDTFIQDDKSNWYYFDKNGYMTYGFQTVNDNNYYFLPNGIELQDAILEDSKGNVYYFNQYGKQAVDGYYMLANKTWRYFDKNGVMANAGLTTVTVDGQEHIQYFDKNGIQVKGTSVKDADGKLRYFDTDSGDMVTNRFGENTDGTWSYFGADGIAVTGAQTISGQKLFFDADGQQIKGKEATDKKGKVHYYDANSGEMITNRFEKLSDGSWAYFNKKGNIVTGAQVINGQHLFFESNGNQVKGREYTATDGKMRYYDADSGDMVTNRFERISDGSWAYFGANGVAVTGEQNINGQQLYFDANGHQVKGAAVTQADGSQKYYDANSGEMIKS
notes: signal peptide removed, C-terminal His6 (pET23b), E. coli BL21(DE3)
Km [1]: 1.9 × 10^1 ± 0.1 mM | kcat/Km [1]: 1300 M⁻¹ s⁻¹

B2: LEUM1747 (Leuconostoc mesenteroides subsp. mesenteroides ATCC 8293) (protein)
chain: TPSVLGDSSVPDVSANNVQSASDNTTDTQQNTTVTEENDKVQSAATNDNVTTAASDTTQSADNNVTEKQSDDHALDNEKVDNKQDEVAQTNVTSKDEESAVASTDTDPAETTTDETQQVSGKYVEKDGSWYYYFDDGKNAKGLSTIDNNIQYFDESGKQVKGQYVTIDNQTYYFDKDSGDELTGLQSIDGNIVAFNDEGQQIFNQYYQSENGTTYYFDDKGHAATGIKNIEGKNYYFDNLGQLKKGFSGVIDGQIMTFDQETGQEVSNTTSEIKEGLTTQNTDYSEHNAAHGTDAEDFENIDGYLTASSWYRPTDILRNGTDWEPSTDTDFRPILSVWWPDKNTQVNYLNYMADLGFISNADSFETGDSQSLLNEASNYVQKSIEMKISAQQSTEWLKDAMAAFIVTQPQWNETSEDMSNDHLQNGALTYVNSPLTPDANSNFRLLNRTPTNQTGEQAYNLDNSKGGFELLLANDVDNSNPVVQAEQLNWLYYLMNFGTITANDADANFDGIRVDAVDNVDADLLQIAADYFKLAYGVDQNDATANQHLSILEDWSHNDPLYVTDQGSNQLTMDDYVHTQLIWSLTKSSDIRGTMQRFVDYYMVDRSNDSTENEAIPNYSFVRAHDSEVQTVIAQIVSDLYPDVENSLAPTTEQLAAAFKVYNEDEKLADKKYTQYNMASAYAMLLTNKDTVPRVYYGDLYTDDGQYMATKSPYYDAINTLLKARVQYVAGGQSMSVDSNDVLTSVRYGKDAMTASDTGTSETRTEGVGVIVSNNAELQLEDGHTVTLHMGAAHKNQAYRALLSTTADGLAYYDTDENAPVAYTDANGDLIFTNESIYGVQNPQVSGYLAVWVPVGAQQDQDARTASDTTTNTSDKVFHSNAALDSQVIYEGFSNFQAFATDSSEYTNVVIAQNADQFKQWGVTSFQLAPQYRSSTDTSFLDSIIQNGYAFTDRYDLGYGTPTKYGTADQLRDAIKALHASGIQAIADWVPDQIYNLPEQELATVTRTNSFGDDDTDSDIDNALYVVQSRGGGQYQEMYGGAFLEELQALYPSLFKVNQISTGVPIDGSVKITEWAAKYFNGSNIQGKGAGYVLKDMGSNKYFKVVSNTEDGDYLPKQLTNDLSETGFTHDDKGIIYYTLSGYRAQNAFIQDDDNNYYYFDKTGHLVTGLQKINNHTYFFLPNGIELVKSFLQNEDGTIVYFDKKGHQVFDQYITDQNGNAYYFDDAGVMLKSGLATIDGHQQYFDQNGVQVKDKFVIGTDGYKYYFEPGSGNLAILRYVQNSKNQWFYFDGNGHAVTGFQTINGKKQYFYNDGHQSKGEFIDADGDTFYTSATDGRLVTGVQKINGITYAFDNTGNLITNQYYQLADGKYMLLDDSGRAKTGFVLQDGVLRYFDQNGEQVKDAIIVDPDTNLSYYFNATQGVAVKNDYFEYQGNWYLTDANYQLIKGFKAVDDSLQHFDEVTGVQTKDSALISAQGKVYQFDNNGNAVSA
notes: as for B1
Km [2]: 2.5 × 10^1 ± 0.2 mM | kcat/Km [2]: 1400 M⁻¹ s⁻¹
